Source: a protein production outcome set (Wang et al. 2014)

test: label from the status in PepcDB records

Sequence	protein production
MARVRFENKRVNMSKLSQFGFEPNQNGQYQFRILIMQGQFEMIIELNTDGSLNTTLTDTTTSEVYVLHLTSQAHGQFVGQVAQAYQDVLYNIEQHCYDNDVFQSTPERKLIAQVKAAYGDDLEFLWPKFPQNAVWRRSDTHKWYGALLTVTSDKLALPGATHVVTVLDLRARPEDLSMLIDGQHYLPGYHMNKKHWYSILLDDVVPLATIMDDVKVSYMLAKLEHHHHHH	not failed
MARYHIETYGCTSNRGESRDIERRLRDAGHHKVETAADADVAILNTCTVVEKTERNMLRRAKELADETADLIVTGCMALAQGEAFADADVDAQVLHWDDVPEAVTNGECPTTTPDAEPILDGVVGILPIARGCMSNCSYCITKQATGRVDSPPVEENVEKARALVHAGAKEIRITGQDTGVYGWDTGERKLPELLERIATEIEGEFRVRVGMANPGGVHGIREELAAVFAEHDEIYNFLHAPVQSGSDDVLADMRRQHEVSQYRDIVETFNDTLGEWTLSTDFIVGFPTEDDDDHEASMDLLRETRPEKINVTRFSKRPGTDAAELKGLGGQTKKDRSKAMTELKMDVVGEAHESMVGTRRDVLVVEEGTGDSVKCYDGAYRQVIVQNATDHGLEPGDFATVEVTSHQTVYAFAEPVDAAAVDDGPAETTAD	failed
MARYINITLEKRGVTCKALLLDDVAPRTSKAVWDALPQSSQVFHGKYARNEIYNLVPAFAPKEPGAENTTVTPIPGDVCYFTFTSNDLKTPSHGYEADSGTDEVQTIVDLAVFYGRNNLLLNGDTGWVPGNVFATIVEGLDEMAAACQDIWMGGARDETLTFSRAEDTA	not failed
MASAHTTQTPFNRLLLTGAAGGLGKVLRETLRPYSHILRLSDIAEMAPAVGDHEEVQVCDLADKDAVHRLVEGVDAILHFGGVSVERPFEEILGANICGVFHIYEAARRHGVKRVIFASSNHVIGFYKQNETIDAHSPRRPDSYYGLSKSYGEDMASFYFDRYGIETVSIRIGSSFPEPQNRRMMSTWLSFDDLTRLLERALYTPDVGHTVVYGVSDNKTVWWDNRFASKLDYAPKDSSEVFRAKVDAQPMPADDDPAMVYQGGAFVASGPFGDK	failed
MASAMLATLELDYFRAVSLYRRRSYERCAELCNALLQAGHDGHVQLFTTKEEEEEEQHQQQQAEHSRFGSNLQRIGPRPRGAAGGGAGAVDSGPSIMMPTWLMEGVWQLKMRALTQRVYVDDLDEDDGGNEATEEVEFERIATAARPGSSIKTAFQPRPLTSQRAQQARSRGAGVAHSSDGRLNSSRPGSAAVARPGTSLSRPGSSLGSRCGTASRIRATSAAAFNVGDATSKLYQASRLNPTIYAERETLVKALFQFLYYHEADVQKAHSLCQAVLEVERQKPSGSTGCTLSWWWQQQMGRCLLALHYPRRAEPFLQQSLTSFPHPDTYLLLSRVYQRIKQPERALLVIGEVVDSRPFDVTYRLEQARIHQAMEQQEDALQLYRLAAKLHPINVESLASIAVGYFYDNNPEMALMYYRRILSLGAQSPELYCNIALCCLYGGQIDLVLPCFQRALATATQPGQKSDIWYNLSFVAVTSGDFNLAKRCLQLCLTSDAQNGAALNNLAVLAAQSGDILGAKSYLNAAKDVMPDAAEVTTNLQFMDVHYKL	failed
MASEDKFESVLSTRYCKNSPLVSILSETNKATLWRQLWIWLAEAEKELGLKQVTQDAIDEMKSNRDVFDWPFIRSEERKLKHDVMAHNHAFGKLCPTAAGIIHLGATSCFVQDNADLIAYRDSIDHILKRFATVIDRLAAFSLKNKEVVTVGRTHYQTASLVTVGKRGVLWAQELLMAFQSLSEFRDKMRFRGIKGATGTQDSFLTLFAGDESKVEALDELVTKKANFSNRFLITGQTYSRQQDSQLVFSLSLLGAAAKKVCTDIRVLQAFGELLEPFEKDQIGSSAMPYKKNPMKSERCCALSRKLINAPQEALTILADQGLERTLDDSAGRRMLIPDVLLTAEALLTTLQNIFEGLSVQTDNVKKIVEDEIAFLGLEKAMMMLTEEGVDRQQAHAVIRKTALEAKQLQATQKVDIRQTMADPFFDSVRDRVVGLVNNPINFTGRCVSQTESFIAKELKPTIDKYLDKSAGNVQLDV	not failed
MASEVVRDSLWRYFAEFVGTFILMLFGDGAVVASLVTNGTSPGYGFIMISWGFGVVLAIYAVGPISGAHINPNVTLAFAVTKRMKWRDVIPYILFQTLGAAAAAGILLAWWGSIITKMDPPPTLYAQVGASFFTEYPNPSFWGQYWPKELLLPNSASGTSLFSEVNQVFPLWIGAFAELLMTFLLLLIVLAVTDTDSPFFNQSLAPWAIGIGYVMPFLLFEAQLTGGMINEARSWGPMLALYLFGYRTGAFNFRGQYFFVYGIPDFIGGILGALFWDYVLKPYLKYLKSNNKK	failed
MASFPPRVNEKEIVRSRTIGELLAPAAPFDKKCGGENWTVAFAPDGSYFAWSQGYRIVKLVPWSQCLKNFLLHGSKNVTNSSCLKLARQNSNGGQKNKPREHIIDCGDIVWSLAFGSSVPEKQSRCVNIEWHRFRFGQDQLLLATGLNNGRIKIWDVYTGKLLLNLVDHIEVVRDLTFAPDGSLLLVSASRDKTLRVWDLKDDGNMVKVLRGHQNWVYSCAFSPDCSMLCSVGASKAVFLWNMDKYTMIRRLEGHHHDVVACDFSPDGALLATASYDTRVYVWDPHIGDTLMEFGHLFPPPTPIFAGGANDRWVRAVSFSHDGLHVASLADDKMVRFWSIGDDCPVQVAPLSNGLCCAFSTDGSVLAAGTHDGSVYFWATPRQVSSLQHLCRMSIRRVMPTQEVQKLPVPSKMLEFLSYRV	failed
MASGQGPGPPRQECGEPALPSASEEQVAQDTEEVFRSYVFYRHQQEQEAEGVAAPADPEMVTLPLQPSSTMGQVGRQLAIIGDDINRRYDSEFQTMLQHLQPTAENAYEYFTKIATSLFESGINWGRVVALLGFGYRLALHVYQHGLTGFLGQVTRFVVDFMLHHCIARWIAQRGGWVAALNLGNGPILNVLVVLGVVLLGQFVVRRFFKS	not failed
MASLSQLSSHLNYTCGAENSTGASQARPHAYYALSYCALILAIVFGNGLLCMAVLKERALQTTTNYLVVSLAVADLLVATLVMPWVVYLEVTGGVWNFSICCDVFVTLDVMMCTASILNLCAISIDRYTAVVMPVHYQHGTGQSSCRRVALMITAVWVLAFAVSCPLLFGFNTTGNPTVCSISNPDFVIYSSVVSFYLPFGVTVLVYARIYVVLKQRRRKRILTRQNSQCNSVRPGFPQQTLSPDPAHLELKRYYSICQDTALGGPGFQERGGELKREEKTRNSLSPTIAPKLSLEVRKLSNGRLSTSLKLGPLQPRGVPLREKKATQMVAIVLGTFIVCWLPFFLTHVLNTHCQTCHVSPELYSATTWLGYVNSALNPVIYTTFNIEFRKAFLKILSC	not failed
MASNMDREMILADFQACTGIENIDEAITLLEQNNWDLVAAINGVIPQENGILQSEYGGETIPGPAFNPASHPASAPTSSSSSAFRPVMPSRQIVERQPRMLDFRVEYRDRNVDVVLEDTCTVGEIKQILENELQIPVSKMLLKGWKTGDVEDSTVLKSLHLPKNNSLYVLTPDLPPPSSSSHAGALQESLNQNFMLIITHREVQREYNLNFSGSSTIQEVKRNVYDLTSIPVRHQLWEGWPTSATDDSMCLAESGLSYPCHRLTVGRRSSPAQTREQSEEQITDVHMVSDSDGDDFEDATEFGVDDGEVFGMASSALRKSPMMPENAENEGDALLQFTAEFSSRYGDCHPVFFIGSLEAAFQEAFYVKARDRKLLAIYLHHDESVLTNVFCSQMLCAESIVSYLSQNFITWAWDLTKDSNRARFLTMCNRHFGSVVAQTIRTQKTDQFPLFLIIMGKRSSNEVLNVIQGNTTVDELMMRLMAAMEIFTAQQQEDIKDEDEREARENVKREQDEAYRLSLEADRAKREAHEREMAEQFRLEQIRKEQEEEREAIRLSLEQALPPEPKEENAEPVSKLRIRTPSGEFLERRFLASNKLQIVFDFVASKGFPWDEYKLLSTFPRRDVTQLDPNKSLLEVKLFPQETLFLEAKE	not failed
MASNSSSCPTPGGGHLNGYPVPPYAFFFPPMLGGLSPPGALTTLQHQLPVSGYSTPSPATIETQSSSSEEIVPSPPSPPPLPRIYKPCFVCQDKSSGYHYGVSACEGCKGFFRRSIQKNMVYTCHRDKNCIINKVTRNRCQYCRLQKCFEVGMSKESVRNDRNKKKKEVPKPECSESYTLTPEVGELIEKVRKAHQETFPALCQLGKYTTNNSSEQRVSLDIDLWDKFSELSTKCIIKTVEFAKQLPGFTTLTIADQITLLKAACLDILILRICTRYTPEQDTMTFSDGLTLNRTQMHNAGFGPLTDLVFAFANQLLPLEMDDAETGLLSAICLICGDRQDLEQPDRVDMLQEPLLEALKVYVRKRRPSRPHMFPKMLMKITDLRSISAKGAERVITLKMEIPGSMPPLIQEMLENSEGLDTLSGQPGGGGRDGGGLAPPPGSCSPSLSPSSNRSSPATHSP	not failed
MASQITGSFTSLTKLITAGSYLAGLGFSIGAIMKFKQHKDNPTQIPIGTPIALIFIAAALLFLPSILGVAGVTMFGGSGGKTAGPTGTIYKTN	failed
MASRFSRVVLVLIDALRFDFAQPQHSHVPREPPVSLPFLGKLSSLQRILEIQPHHARLYRSQVDPPTTTMQRLKALTTGSLPTFIDAGSNFASHAIVEDNLIKQLTSAGRRVVFMGDDTWKDLFPGAFSKAFFFPSFNVRDLDTVDNGILEHLYPTMDSGEWDVLIAHFLGVDHCGHKHGPHHPEMAKKLSQMDQVIQGLVERLENDTLLVVAGDHGMTTNGDHGGDSELEVSAALFLYSPTAVFPSTPPEEPEVIPQVSLVPTLALLLGLPIPFGNIGEVMAELFSGGEDSQPHSSALAQASALHLNAQQVSRFLHTYSAATQDLQAKELHQLQNLFSKASADYQWLLQSPRAEATLPTVIAELQQFLRGARAMCIESWARFSLVRMAGGTALLAASCFICLLASQWAISPGFPFCPLLLTPVAWGLVGAIAYAGLLGTIELKLDLVLLGAVAAVSSFLPFLWKAWAGWGSKRPLATLFPIPGPVLLLLLFRLAVFFSDSFVVAEARATPFLLGSFILLLVVQLHWEGQLLPPKLLTMPRLGTSATTNPPRHNGAYALRLGIGLLLCTRLAGLFHRCPEETPVCHSSPWLSPLASMVGGRAKNLWYGACVAALVALLAAVRLWLRRYGNLKSPEPPMLFVRWGLPLMALGTAAYWALASGADEAPPRLRVLVSGASMVLPRAVAGLAASGLALLLWKPVTVLVKAGAGAPRTRTVLTPFSGPPTSQADLDYVVPQIYRHMQEEFRGRLERTKSQGPLTVAAYQLGSVYSAAMVTALTLLAFPLLLLHAERISLVFLLLFLQSFLLLHLLAAGIPVTTPGPFTVPWQAVSAWALMATQTFYSTGHQPVFPAIHWHAAFVGFPEGHGSCTWLPALLVGANTFASHLLFAVGCPLLLLWPFLCESQGLRKRQQPPGNEADARVRPEEEEEPLMEMRLRDAPQHFYAALLQLGLKYLFILGIQILACALAASILRRHLMVWKVFAPKFIFEAVGFIVSSVGLLLGIALVMRVDGAVSSWFRQLFLAQQR	failed
MASRSDSAALSRDVPGAAFCGSRDMQKKHLFLALLVTALWGLNFPITKLGLASIDPLLLTALRFTLAALPWVFLVPRPPVAFAWLAAYGLIFGVAMWALINLGIDHGVAPGTAALLIQFSAFFSLGWGVLLFGERLRLQQVLATAIALWGLLRIIGDSPGHATSLGYALLLVSAFSWSVGNVIIKRCGVREVFAFVVWASLFAPLPLLALTWISHGAAPFLQLAGQVSAGAALSLMFQVYAATLFCYWGWNLLLREYPVSRVAPLSLLIPVFGMAGSVLILGQRLGAEEGISMGLILLALAVGQFDWRRLITLGRRSL	failed
MASSFLEEVDRLITLSGITFHASGTGTPELIKIYQDALGNEFPETYKLFLEKYGTLTFNGVSFYGISKRGLSAASIPDVKFATEQARTFGDINKEMIMIKNSGYGSIFSIDTSIIGSEGEPVIVETNLSFKDNTEKKVVANSFGEFLLEEIELSLTDLG	not failed
MASSSKNITYPPRLYPEGLLKSSLCVFIKFADAKYIWAAHTVHYFLTNQLSVNNFHEIMSVIDGWPIRFSLTEFVDITSLNCDLLDKSTTCEIGHYEFWNEMGVGTYDGPLFIELKHVMDISKEWSYEKRLMVGRLCLLSVGVHGIYHGCRIPLSSAKLVLDPKAFEKYLWGRVAFESLVISVKIVDYKKDICDSWMCPRLVDLDL	failed
